Starred links: 1 amine or outer side, 2 acyl side, 3 side chain; linkers in the order of their positions; H or OH if unused. Non-standard residues stand in square brackets, D forms with d. Groups on a side chain read outwards from the residue. No end group written: not given here. *: point of attachment. C20 diacid = O=C(O)CCCCCCCCCCCCCCCCCCC(=O)*; C18 diacid = O=C(O)CCCCCCCCCCCCCCCCC(=O)*; C16 diacid = O=C(O)CCCCCCCCCCCCCCC(=O)*; γGlu = O=C(O)[C@H](CCC(=O)[*:2])N[*:1]; Adipoyl = O=C(CCCCC(=O)[*:2])[*:1]; Palmitoyl = CCCCCCCCCCCCCCCC(=O)*; Suc = O=C(CCC(=O)[*:2])[*:1]; AEEA = NCCOCCOCC(=O)O; Aib = CC(C)(N)C(=O)O
Biological target: T1, human GIP receptor (human, UniProt P48546 22-466)
T1 sequence (looked up): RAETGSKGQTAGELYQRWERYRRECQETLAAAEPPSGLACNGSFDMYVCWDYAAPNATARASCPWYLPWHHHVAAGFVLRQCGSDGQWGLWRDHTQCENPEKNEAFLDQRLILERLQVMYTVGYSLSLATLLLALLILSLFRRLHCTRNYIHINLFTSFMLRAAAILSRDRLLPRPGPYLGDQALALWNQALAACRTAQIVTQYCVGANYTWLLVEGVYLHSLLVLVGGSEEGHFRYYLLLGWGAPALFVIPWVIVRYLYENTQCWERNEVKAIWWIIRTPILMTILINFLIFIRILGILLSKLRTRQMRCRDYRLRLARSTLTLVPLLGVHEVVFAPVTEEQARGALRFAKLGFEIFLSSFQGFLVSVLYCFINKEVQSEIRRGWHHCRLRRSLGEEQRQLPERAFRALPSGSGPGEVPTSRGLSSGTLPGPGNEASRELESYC
Experiment: cell-based or functional assay

Binder	nM (Kb, Gaddum assay, cAMP) [nM]	pKb (Gaddum assay, cAMP)
Adipoyl-GTFISEYSI[Aib]LEKIK([AEEA-AEEA-γGlu-C18 diacid])QQEFVEWLLAQKPSSGAPPPS-OH (SMILES CC[C@H](C)[C@H](NC(=O)[C@H](CCCCN)NC(=O)[C@H](CCC(=O)O)NC(=O)[C@H](CC(C)C)NC(=O)C(C)(C)NC(=O)[C@@H](NC(=O)[C@H](CO)NC(=O)[C@H](Cc1ccc(O)cc1)NC(=O)[C@H](CCC(=O)O)NC(=O)[C@H](CO)NC(=O)[C@@H](NC(=O)[C@H](Cc1ccccc1)NC(=O)[C@@H](NC(=O)CNC(=O)CCCCC(=O)O)[C@@H](C)O)[C@@H](C)CC)[C@@H](C)CC)C(=O)N[C@@H](CCCCNC(=O)COCCOCCNC(=O)COCCOCCNC(=O)CC[C@H](NC(=O)CCCCCCCCCCCCCCCCC(=O)O)C(=O)O)C(=O)N[C@@H](CCC(N)=O)C(=O)N[C@@H](CCC(N)=O)C(=O)N[C@@H](CCC(=O)O)C(=O)N[C@@H](Cc1ccccc1)C(=O)N[C@H](C(=O)N[C@@H](CCC(=O)O)C(=O)N[C@@H](Cc1c[nH]c2ccccc12)C(=O)N[C@@H](CC(C)C)C(=O)N[C@@H](CC(C)C)C(=O)N[C@@H](C)C(=O)N[C@@H](CCC(N)=O)C(=O)N[C@@H](CCCCN)C(=O)N1CCC[C@H]1C(=O)N[C@@H](CO)C(=O)N[C@@H](CO)C(=O)NCC(=O)N[C@@H](C)C(=O)N1CCC[C@H]1C(=O)N1CCC[C@H]1C(=O)N1CCC[C@H]1C(=O)N[C@@H](CO)C(=O)O)C(C)C) [AT753]	0.23	9.6
EGTFISDYSIAMDKIK(C16 diacid)QQDFVEWLLAQK-OH (N-terminus assumed; SMILES CC[C@H](C)[C@H](NC(=O)[C@H](CO)NC(=O)[C@H](Cc1ccc(O)cc1)NC(=O)[C@H](CC(=O)O)NC(=O)[C@H](CO)NC(=O)[C@@H](NC(=O)[C@H](Cc1ccccc1)NC(=O)[C@@H](NC(=O)CNC(=O)[C@@H](N)CCC(=O)O)[C@@H](C)O)[C@@H](C)CC)C(=O)N[C@@H](C)C(=O)N[C@@H](CCSC)C(=O)N[C@@H](CC(=O)O)C(=O)N[C@@H](CCCCN)C(=O)N[C@H](C(=O)N[C@@H](CCCCNC(=O)CCCCCCCCCCCCCCC(=O)O)C(=O)N[C@@H](CCC(N)=O)C(=O)N[C@@H](CCC(N)=O)C(=O)N[C@@H](CC(=O)O)C(=O)N[C@@H](Cc1ccccc1)C(=O)N[C@H](C(=O)N[C@@H](CCC(=O)O)C(=O)N[C@@H](Cc1c[nH]c2ccccc12)C(=O)N[C@@H](CC(C)C)C(=O)N[C@@H](CC(C)C)C(=O)N[C@@H](C)C(=O)N[C@@H](CCC(N)=O)C(=O)N[C@@H](CCCCN)C(=O)O)C(C)C)[C@@H](C)CC) [AT749]	2.2	8.7
EGTFISEYSI[Aib]LEKIK([AEEA-AEEA-γGlu-C18 diacid])QQDFVEWLLAQKPSSGAPPPS-OH (N-terminus assumed; SMILES CC[C@H](C)[C@H](NC(=O)[C@H](CCCCN)NC(=O)[C@H](CCC(=O)O)NC(=O)[C@H](CC(C)C)NC(=O)C(C)(C)NC(=O)[C@@H](NC(=O)[C@H](CO)NC(=O)[C@H](Cc1ccc(O)cc1)NC(=O)[C@H](CCC(=O)O)NC(=O)[C@H](CO)NC(=O)[C@@H](NC(=O)[C@H](Cc1ccccc1)NC(=O)[C@@H](NC(=O)CNC(=O)[C@@H](N)CCC(=O)O)[C@@H](C)O)[C@@H](C)CC)[C@@H](C)CC)C(=O)N[C@@H](CCCCNC(=O)COCCOCCNC(=O)COCCOCCNC(=O)CC[C@H](NC(=O)CCCCCCCCCCCCCCCCC(=O)O)C(=O)O)C(=O)N[C@@H](CCC(N)=O)C(=O)N[C@@H](CCC(N)=O)C(=O)N[C@@H](CC(=O)O)C(=O)N[C@@H](Cc1ccccc1)C(=O)N[C@H](C(=O)N[C@@H](CCC(=O)O)C(=O)N[C@@H](Cc1c[nH]c2ccccc12)C(=O)N[C@@H](CC(C)C)C(=O)N[C@@H](CC(C)C)C(=O)N[C@@H](C)C(=O)N[C@@H](CCC(N)=O)C(=O)N[C@@H](CCCCN)C(=O)N1CCC[C@H]1C(=O)N[C@@H](CO)C(=O)N[C@@H](CO)C(=O)NCC(=O)N[C@@H](C)C(=O)N1CCC[C@H]1C(=O)N1CCC[C@H]1C(=O)N1CCC[C@H]1C(=O)N[C@@H](CO)C(=O)O)C(C)C) [AT754]	2.2	8.7
EGTFISDYSIAMDKIK(Palmitoyl)QQDFVEWLLAQKPSSGAPPPS-OH (N-terminus assumed; SMILES CCCCCCCCCCCCCCCC(=O)NCCCC[C@H](NC(=O)[C@@H](NC(=O)[C@H](CCCCN)NC(=O)[C@H](CC(=O)O)NC(=O)[C@H](CCSC)NC(=O)[C@H](C)NC(=O)[C@@H](NC(=O)[C@H](CO)NC(=O)[C@H](Cc1ccc(O)cc1)NC(=O)[C@H](CC(=O)O)NC(=O)[C@H](CO)NC(=O)[C@@H](NC(=O)[C@H](Cc1ccccc1)NC(=O)[C@@H](NC(=O)CNC(=O)[C@@H](N)CCC(=O)O)[C@@H](C)O)[C@@H](C)CC)[C@@H](C)CC)[C@@H](C)CC)C(=O)N[C@@H](CCC(N)=O)C(=O)N[C@@H](CCC(N)=O)C(=O)N[C@@H](CC(=O)O)C(=O)N[C@@H](Cc1ccccc1)C(=O)N[C@H](C(=O)N[C@@H](CCC(=O)O)C(=O)N[C@@H](Cc1c[nH]c2ccccc12)C(=O)N[C@@H](CC(C)C)C(=O)N[C@@H](CC(C)C)C(=O)N[C@@H](C)C(=O)N[C@@H](CCC(N)=O)C(=O)N[C@@H](CCCCN)C(=O)N1CCC[C@H]1C(=O)N[C@@H](CO)C(=O)N[C@@H](CO)C(=O)NCC(=O)N[C@@H](C)C(=O)N1CCC[C@H]1C(=O)N1CCC[C@H]1C(=O)N1CCC[C@H]1C(=O)N[C@@H](CO)C(=O)O)C(C)C) [AT751]	0.92	9
Suc-GTFISEYSI[Aib]LEKIK([AEEA-AEEA-γGlu-C18 diacid])QQEFVEWLLAQKPSSGAPPPS-OH [AT752]	0.52	9.3
EGTFISDYSIAMDKIK(C20 diacid)QQDFVEWLLAQKPSSGAPPPS-OH (N-terminus assumed; SMILES CC[C@H](C)[C@H](NC(=O)[C@H](CO)NC(=O)[C@H](Cc1ccc(O)cc1)NC(=O)[C@H](CC(=O)O)NC(=O)[C@H](CO)NC(=O)[C@@H](NC(=O)[C@H](Cc1ccccc1)NC(=O)[C@@H](NC(=O)CNC(=O)[C@@H](N)CCC(=O)O)[C@@H](C)O)[C@@H](C)CC)C(=O)N[C@@H](C)C(=O)N[C@@H](CCSC)C(=O)N[C@@H](CC(=O)O)C(=O)N[C@@H](CCCCN)C(=O)N[C@H](C(=O)N[C@@H](CCCCNC(=O)CCCCCCCCCCCCCCCCCCC(=O)O)C(=O)N[C@@H](CCC(N)=O)C(=O)N[C@@H](CCC(N)=O)C(=O)N[C@@H](CC(=O)O)C(=O)N[C@@H](Cc1ccccc1)C(=O)N[C@H](C(=O)N[C@@H](CCC(=O)O)C(=O)N[C@@H](Cc1c[nH]c2ccccc12)C(=O)N[C@@H](CC(C)C)C(=O)N[C@@H](CC(C)C)C(=O)N[C@@H](C)C(=O)N[C@@H](CCC(N)=O)C(=O)N[C@@H](CCCCN)C(=O)N1CCC[C@H]1C(=O)N[C@@H](CO)C(=O)N[C@@H](CO)C(=O)NCC(=O)N[C@@H](C)C(=O)N1CCC[C@H]1C(=O)N1CCC[C@H]1C(=O)N1CCC[C@H]1C(=O)N[C@@H](CO)C(=O)O)C(C)C)[C@@H](C)CC) [AT750]	4.1	8.4
